To fix the notation:
B1: CE115HA000 A99F one-arm antibody (antibody, human IgG1, kappa, L234A L235A, N297A, name in Kabat numbering)
heavy: QVQLVESGGGVVQPGRSLRLSCAASGFTFSNAWMHWVRQAPGKGLEWVAQIKAKSNNYATYYAESVKGRFTISRDDSKNSLYLQMNSLKTEDTAVYYCRYVHYGFYYGVDAWGQGTTVTVSSASTKGPSVFPLAPSSKSTSGGTAALGCLVKDYFPEPVTVSWNSGALTSGVHTFPAVLQSSGLYSLSSVVTVPSSSLGTQTYICNVNHKPSNTKVDKKVEPKSCDKTHTCPPCPAPEAAGGPSVFLFPPKPKDTLMISRTPEVTCVVVDVSHEDPEVKFNWYVDGVEVHNAKTKPREEQYASTYRVVSVLTVLHQDWLNGKEYKCKVSNKALPAPIEKTISKAKGQPREPQVYTLPPSRCELTKNQVSLSCAVKGFYPSDIAVEWESNGQPENNYKTTPPVLDSDGSFFLVSKLTVDKSRWQQGNVFSCSVMHEALHNHYTQKSLSLSPDYKDDDDK
chain: EPKSSDKTHTCPPCPAPELLGGPSVFLFPPKPKDTLMISRTPEVTCVVVDVSHEDPEVKFNWYVDGVEVHNAKTKPREEQYNSTYRVVSVLTVLHQDWLNGKEYKCKVSNKALPAPIEKTISKAKGQPREPQVCTLPPSRDELTKNQVSLWCLVKGFYPSDIAVEWESNGQPENNYKTTPPVLDSDGSFFLYSKLTVDKSRWQQGNVFSCSVMHEALHNRYTQKSLSLSP
light: DIVMTQSPLSLPVTPGEPASISCRSSQSLVHSNRNTYLHWYQQKPGQAPRLLIYKVSNRFSGVPDRFSGSGSGTDFTLKISRVEAEDVGVYYCGQGTQVPYTFGQGTKLEIKRTVAAPSVFIFPPSDEQLKSGTASVVCLLNNFYPREAKVQWKVDNALQSGNSQESVTEQDSKDSTYSLSSTLTLSKADYEKHKVYACEVTHQGLSSPVTKSFNRGEC
B2: CE115HA000 A99L one-arm antibody (antibody, human IgG1, kappa, L234A L235A, N297A, name in Kabat numbering)
heavy: QVQLVESGGGVVQPGRSLRLSCAASGFTFSNAWMHWVRQAPGKGLEWVAQIKAKSNNYATYYAESVKGRFTISRDDSKNSLYLQMNSLKTEDTAVYYCRYVHYGLYYGVDAWGQGTTVTVSSASTKGPSVFPLAPSSKSTSGGTAALGCLVKDYFPEPVTVSWNSGALTSGVHTFPAVLQSSGLYSLSSVVTVPSSSLGTQTYICNVNHKPSNTKVDKKVEPKSCDKTHTCPPCPAPEAAGGPSVFLFPPKPKDTLMISRTPEVTCVVVDVSHEDPEVKFNWYVDGVEVHNAKTKPREEQYASTYRVVSVLTVLHQDWLNGKEYKCKVSNKALPAPIEKTISKAKGQPREPQVYTLPPSRCELTKNQVSLSCAVKGFYPSDIAVEWESNGQPENNYKTTPPVLDSDGSFFLVSKLTVDKSRWQQGNVFSCSVMHEALHNHYTQKSLSLSPDYKDDDDK
chain: EPKSSDKTHTCPPCPAPELLGGPSVFLFPPKPKDTLMISRTPEVTCVVVDVSHEDPEVKFNWYVDGVEVHNAKTKPREEQYNSTYRVVSVLTVLHQDWLNGKEYKCKVSNKALPAPIEKTISKAKGQPREPQVCTLPPSRDELTKNQVSLWCLVKGFYPSDIAVEWESNGQPENNYKTTPPVLDSDGSFFLYSKLTVDKSRWQQGNVFSCSVMHEALHNRYTQKSLSLSP
light: DIVMTQSPLSLPVTPGEPASISCRSSQSLVHSNRNTYLHWYQQKPGQAPRLLIYKVSNRFSGVPDRFSGSGSGTDFTLKISRVEAEDVGVYYCGQGTQVPYTFGQGTKLEIKRTVAAPSVFIFPPSDEQLKSGTASVVCLLNNFYPREAKVQWKVDNALQSGNSQESVTEQDSKDSTYSLSSTLTLSKADYEKHKVYACEVTHQGLSSPVTKSFNRGEC
B3: CE115HA000 A99K one-arm antibody (antibody, human IgG1, kappa, L234A L235A, N297A, name in Kabat numbering)
heavy: QVQLVESGGGVVQPGRSLRLSCAASGFTFSNAWMHWVRQAPGKGLEWVAQIKAKSNNYATYYAESVKGRFTISRDDSKNSLYLQMNSLKTEDTAVYYCRYVHYGKYYGVDAWGQGTTVTVSSASTKGPSVFPLAPSSKSTSGGTAALGCLVKDYFPEPVTVSWNSGALTSGVHTFPAVLQSSGLYSLSSVVTVPSSSLGTQTYICNVNHKPSNTKVDKKVEPKSCDKTHTCPPCPAPEAAGGPSVFLFPPKPKDTLMISRTPEVTCVVVDVSHEDPEVKFNWYVDGVEVHNAKTKPREEQYASTYRVVSVLTVLHQDWLNGKEYKCKVSNKALPAPIEKTISKAKGQPREPQVYTLPPSRCELTKNQVSLSCAVKGFYPSDIAVEWESNGQPENNYKTTPPVLDSDGSFFLVSKLTVDKSRWQQGNVFSCSVMHEALHNHYTQKSLSLSPDYKDDDDK
chain: EPKSSDKTHTCPPCPAPELLGGPSVFLFPPKPKDTLMISRTPEVTCVVVDVSHEDPEVKFNWYVDGVEVHNAKTKPREEQYNSTYRVVSVLTVLHQDWLNGKEYKCKVSNKALPAPIEKTISKAKGQPREPQVCTLPPSRDELTKNQVSLWCLVKGFYPSDIAVEWESNGQPENNYKTTPPVLDSDGSFFLYSKLTVDKSRWQQGNVFSCSVMHEALHNRYTQKSLSLSP
light: DIVMTQSPLSLPVTPGEPASISCRSSQSLVHSNRNTYLHWYQQKPGQAPRLLIYKVSNRFSGVPDRFSGSGSGTDFTLKISRVEAEDVGVYYCGQGTQVPYTFGQGTKLEIKRTVAAPSVFIFPPSDEQLKSGTASVVCLLNNFYPREAKVQWKVDNALQSGNSQESVTEQDSKDSTYSLSSTLTLSKADYEKHKVYACEVTHQGLSSPVTKSFNRGEC
B4: CE115HA000 A99Q one-arm antibody (antibody, human IgG1, kappa, L234A L235A, N297A, name in Kabat numbering)
heavy: QVQLVESGGGVVQPGRSLRLSCAASGFTFSNAWMHWVRQAPGKGLEWVAQIKAKSNNYATYYAESVKGRFTISRDDSKNSLYLQMNSLKTEDTAVYYCRYVHYGQYYGVDAWGQGTTVTVSSASTKGPSVFPLAPSSKSTSGGTAALGCLVKDYFPEPVTVSWNSGALTSGVHTFPAVLQSSGLYSLSSVVTVPSSSLGTQTYICNVNHKPSNTKVDKKVEPKSCDKTHTCPPCPAPEAAGGPSVFLFPPKPKDTLMISRTPEVTCVVVDVSHEDPEVKFNWYVDGVEVHNAKTKPREEQYASTYRVVSVLTVLHQDWLNGKEYKCKVSNKALPAPIEKTISKAKGQPREPQVYTLPPSRCELTKNQVSLSCAVKGFYPSDIAVEWESNGQPENNYKTTPPVLDSDGSFFLVSKLTVDKSRWQQGNVFSCSVMHEALHNHYTQKSLSLSPDYKDDDDK
chain: EPKSSDKTHTCPPCPAPELLGGPSVFLFPPKPKDTLMISRTPEVTCVVVDVSHEDPEVKFNWYVDGVEVHNAKTKPREEQYNSTYRVVSVLTVLHQDWLNGKEYKCKVSNKALPAPIEKTISKAKGQPREPQVCTLPPSRDELTKNQVSLWCLVKGFYPSDIAVEWESNGQPENNYKTTPPVLDSDGSFFLYSKLTVDKSRWQQGNVFSCSVMHEALHNRYTQKSLSLSP
light: DIVMTQSPLSLPVTPGEPASISCRSSQSLVHSNRNTYLHWYQQKPGQAPRLLIYKVSNRFSGVPDRFSGSGSGTDFTLKISRVEAEDVGVYYCGQGTQVPYTFGQGTKLEIKRTVAAPSVFIFPPSDEQLKSGTASVVCLLNNFYPREAKVQWKVDNALQSGNSQESVTEQDSKDSTYSLSSTLTLSKADYEKHKVYACEVTHQGLSSPVTKSFNRGEC

T1 sequence (P07766 23-126 limits assumed): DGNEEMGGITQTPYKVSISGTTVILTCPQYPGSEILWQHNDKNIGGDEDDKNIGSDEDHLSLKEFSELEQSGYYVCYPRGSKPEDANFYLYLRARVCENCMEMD

The assay concerns the target T1, CD3ε homodimer protein (human, UniProt P07766 23-126, limits assumed, sulfo-tag or biotin label in the ECL assays; amine-coupled to the chip in SPR).
T1 construct: also called human CD3ε homodimer protein; CD3 (CD3ε)
As to the kind of experiment: SPR Biacore T200; CD3ε homodimer on CM4 chip.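 Also: Single-residue variant antibodies injected as analyte over CD3ε homodimer immobilized by amine coupling, run at 25 °C in HBS-EP+ buffer.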
In the case of B1, the “ratio of amounts bound Z=Y/X (altered form / CE115HA000)” value came to 1.43.
In the case of B2 it was 1.13; in that of B3, 1.48; in that of B4, 0.91.

Values taken from patent US20260049138A1 (Chugai, published 2026).
